Measurements published in patent US20250115953, “Methylcytosine-Selective Deaminases and Uses Thereof” (New England Biolabs, Inc., published 2025).
Read-outs that look alike come from different tables or passages of the source.

Tests used:
B5 deaminase [1] = tested on: T1, B5 deaminase; conditions: 30 C 12 h, 6 uM enzyme
T1 sequence: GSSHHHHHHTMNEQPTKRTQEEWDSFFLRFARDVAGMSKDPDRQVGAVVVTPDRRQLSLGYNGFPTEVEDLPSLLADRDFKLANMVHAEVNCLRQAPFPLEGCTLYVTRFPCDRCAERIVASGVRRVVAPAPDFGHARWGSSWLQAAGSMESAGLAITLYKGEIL

B5 deaminase [2] = tested on: T1, B5 deaminase
B5 deaminase [3] = tested on: T1, B5 deaminase; conditions: LC/MS
E10 deaminase [4] = tested on: T2, E10 deaminase; conditions: 2-3 h
T2 sequence: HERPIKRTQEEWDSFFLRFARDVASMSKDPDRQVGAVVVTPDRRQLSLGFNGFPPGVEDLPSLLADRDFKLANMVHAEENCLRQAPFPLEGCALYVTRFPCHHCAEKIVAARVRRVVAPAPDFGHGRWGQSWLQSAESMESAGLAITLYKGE

[5] = tested on: T3, PBCV-1 deaminase (Paramecium bursaria chlorella virus 1?); conditions: overnight
T3 sequence: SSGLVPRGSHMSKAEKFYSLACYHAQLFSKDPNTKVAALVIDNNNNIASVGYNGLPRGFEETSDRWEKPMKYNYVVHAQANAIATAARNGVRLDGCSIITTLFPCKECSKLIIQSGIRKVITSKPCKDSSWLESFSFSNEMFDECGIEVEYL

B5 deaminase [6] = tested on: T1, B5 deaminase; conditions: Zn, 2-3 h
F7 deaminase [7] = tested on: T4, F7 deaminase; conditions: Zn, 2-3 h
T4 sequence: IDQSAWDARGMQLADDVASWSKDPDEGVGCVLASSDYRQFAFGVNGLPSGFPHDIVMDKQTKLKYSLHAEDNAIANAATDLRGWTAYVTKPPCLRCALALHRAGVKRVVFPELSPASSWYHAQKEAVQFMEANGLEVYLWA

B4 deaminase = conditions: 5mC at position 17; solid support, overnight
E10 deaminase [8] = tested on: T2, E10 deaminase; conditions: all C replaced by 5mC; most preferred motif ATCAA; least GGCGC 11.58%
H3 deaminase = tested on: T5, H3 deaminase; conditions: all C replaced by 5mC; most preferred motif AACTT; least GGCCC 1.28%
T5 sequence: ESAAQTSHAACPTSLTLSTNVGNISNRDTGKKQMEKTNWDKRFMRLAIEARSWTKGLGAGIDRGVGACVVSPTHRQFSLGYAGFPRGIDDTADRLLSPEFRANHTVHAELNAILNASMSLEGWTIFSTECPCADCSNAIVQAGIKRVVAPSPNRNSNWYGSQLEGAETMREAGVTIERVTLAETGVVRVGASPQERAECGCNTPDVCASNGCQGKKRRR

B5 deaminase [9] = tested on: T1, B5 deaminase; conditions: all C replaced by 5mC; most preferred motif ATCAA; least GGCCC 22.51%
G12 deaminase = tested on: T6, G12 deaminase; conditions: all C replaced by 5mC; most preferred motif TACGG; least GCCCC 0.90%
T6 sequence: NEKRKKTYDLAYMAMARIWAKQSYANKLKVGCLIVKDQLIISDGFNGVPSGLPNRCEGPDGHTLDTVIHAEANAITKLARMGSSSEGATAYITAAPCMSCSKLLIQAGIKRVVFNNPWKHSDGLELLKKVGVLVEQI

F7 deaminase [10] = tested on: T4, F7 deaminase; conditions: all C replaced by 5mC; most preferred motif GTCAG; least GGCCG 5.51%
251 deaminase = molecular target: T7, 251 deaminase; assay: solid support, overnight; conditions: tags: immobilized on solid support; label: 5'-FAM
T7 chain: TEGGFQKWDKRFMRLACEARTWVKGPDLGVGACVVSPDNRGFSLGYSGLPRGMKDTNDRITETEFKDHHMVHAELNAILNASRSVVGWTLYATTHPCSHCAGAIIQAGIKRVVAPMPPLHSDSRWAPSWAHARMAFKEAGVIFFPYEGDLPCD

H2 deaminase = molecular target: T8, H2 deaminase; assay: solid support, overnight; conditions: tags: immobilized on solid support; label: 5'-FAM
T8 chain: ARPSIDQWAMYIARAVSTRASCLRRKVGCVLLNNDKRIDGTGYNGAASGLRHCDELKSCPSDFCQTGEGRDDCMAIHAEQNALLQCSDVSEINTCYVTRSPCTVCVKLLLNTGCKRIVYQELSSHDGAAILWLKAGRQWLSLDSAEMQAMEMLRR

F12 deaminase = molecular target: T9, F12 deaminase; assay: solid support, overnight; conditions: tags: immobilized on solid support; label: 5'-FAM
T9 chain: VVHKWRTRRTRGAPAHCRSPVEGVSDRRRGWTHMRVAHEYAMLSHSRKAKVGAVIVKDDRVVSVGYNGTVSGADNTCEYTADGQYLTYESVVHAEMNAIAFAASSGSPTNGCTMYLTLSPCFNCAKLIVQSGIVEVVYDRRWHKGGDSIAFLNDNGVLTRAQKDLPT

E12 deaminase = molecular target: T10, E12 deaminase; assay: solid support, overnight; conditions: tags: immobilized on solid support; label: 5'-FAM
T10 chain: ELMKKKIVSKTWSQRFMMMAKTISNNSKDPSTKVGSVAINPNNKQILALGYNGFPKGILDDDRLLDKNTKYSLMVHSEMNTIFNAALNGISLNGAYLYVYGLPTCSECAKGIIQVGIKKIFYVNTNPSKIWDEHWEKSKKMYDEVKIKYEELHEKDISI

G10 deaminase = molecular target: T11, G10 deaminase; assay: solid support, overnight; conditions: tags: immobilized on solid support; label: 5'-FAM
T11 chain: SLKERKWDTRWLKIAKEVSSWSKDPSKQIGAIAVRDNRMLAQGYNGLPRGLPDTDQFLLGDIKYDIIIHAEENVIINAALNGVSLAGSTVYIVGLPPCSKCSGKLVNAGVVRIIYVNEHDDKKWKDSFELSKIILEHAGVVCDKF

206 deaminase = molecular target: T12, 206 deaminase; assay: solid support, overnight; conditions: tags: immobilized on solid support; label: 5'-FAM
T12 chain: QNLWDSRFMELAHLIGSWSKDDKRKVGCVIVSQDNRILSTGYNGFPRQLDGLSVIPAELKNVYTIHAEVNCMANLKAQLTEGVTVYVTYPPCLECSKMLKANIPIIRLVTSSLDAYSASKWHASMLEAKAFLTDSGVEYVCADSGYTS

252 deaminase = molecular target: T13, 252 deaminase; assay: solid support, overnight; conditions: tags: immobilized on solid support; label: 5'-FAM
T13 chain: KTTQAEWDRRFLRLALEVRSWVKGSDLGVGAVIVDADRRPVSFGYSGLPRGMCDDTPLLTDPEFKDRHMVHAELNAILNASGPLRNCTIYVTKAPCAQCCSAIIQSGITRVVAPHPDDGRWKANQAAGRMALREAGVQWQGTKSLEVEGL

PRW314 = molecular target: T14, PRW314; assay: 1 h; conditions: label: 5'-FAM
T14 chain: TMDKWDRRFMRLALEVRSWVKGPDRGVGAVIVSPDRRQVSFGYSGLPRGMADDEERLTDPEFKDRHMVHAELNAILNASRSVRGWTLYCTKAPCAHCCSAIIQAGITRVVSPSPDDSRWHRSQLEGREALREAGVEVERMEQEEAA

PRW313 = molecular target: T15, PRW313; assay: 1 h; conditions: label: 5'-FAM
T15 chain: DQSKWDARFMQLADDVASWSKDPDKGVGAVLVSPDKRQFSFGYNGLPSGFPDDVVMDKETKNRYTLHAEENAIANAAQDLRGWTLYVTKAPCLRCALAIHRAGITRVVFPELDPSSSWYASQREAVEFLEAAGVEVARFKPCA

PRW311 = molecular target: T16, PRW311; assay: 1 h; conditions: label: 5'-FAM
T16 chain: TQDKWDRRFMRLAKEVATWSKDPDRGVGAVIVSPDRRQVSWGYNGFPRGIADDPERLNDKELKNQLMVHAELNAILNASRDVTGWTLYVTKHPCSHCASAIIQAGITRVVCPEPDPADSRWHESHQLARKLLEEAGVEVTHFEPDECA

PRW294 = molecular target: T17, PRW294; assay: 1 h; conditions: label: 5'-FAM
T17 chain: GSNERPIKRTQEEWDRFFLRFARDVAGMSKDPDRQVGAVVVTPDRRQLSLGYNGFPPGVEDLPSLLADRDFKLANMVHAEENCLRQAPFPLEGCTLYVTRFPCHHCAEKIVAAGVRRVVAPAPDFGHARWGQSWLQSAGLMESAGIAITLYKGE

## TGTCCGATAGACTCTACGCA [5mC-oligo (Oligo 2)]
APOBEC; 5mC at position 14, unmodified C 94.1%
  activity: 100 % 5mC to T
B5 deaminase [1]; 5mC at position 14, unmodified C 2.80%
  activity: 21.1 % 5mC to T

## TGTCCGATAGACTCTACGCA [5hmC-oligo (Oligo 1)]
APOBEC; 5hmC at position 14, unmodified C 100%
  activity (% 5hmC to 5hmU): 100
B5 deaminase [1]; 5hmC at position 14, DpnII buffer, LC/MS, unmodified C 0.90%
  activity (% 5hmC to 5hmU): 35

## T4 genomic DNA, denatured
B5 deaminase [2]; 5gmC (glucosylated 5hmC), NaOH and heat denatured
  activity (% deamination): 6

## ssDNA oligo with 5gmC (Table 6)
B5 deaminase [3]; 5gmC
  activity (% deamination): 2

## ssDNA oligo C (Table 6)
B5 deaminase [3]; average
  activity (% deamination): 2

## ATACACCGATGCAGAACTCATGGGCTTACGC [FAM 5mC oligo 1]
E10 deaminase [4]; 5mC at position 17, highest measured (6-7% in FIG. 7C/D)
  activity (% deamination): 54
[5]; 5mC at position 17, 42 C, Bis-Tris pH 6.5
  activity (% deamination): 51
B5 deaminase [6]; 5mC at position 17, EcoRI/CE assay, 42 C, Bis-Tris pH 6.5, 36% in FIG. 7B and when on Ni beads
  activity (% deamination): 74
F7 deaminase [7]; 5mC at position 17
  activity (% deamination): 72
B4 deaminase
  activity (% deamination): 3

## ATACACCGATGCAGAACTCATGGGCTTACGC [FAM C oligo 4]
E10 deaminase [4]
  activity (% deamination): 3
[5]
  activity (% deamination): 7
B5 deaminase [6]
  activity (% deamination): 4
F7 deaminase [7]
  activity (% deamination): 12

## lambda genomic DNA, native
B5 deaminase [2]; not denatured
  activity (% deamination): 3

## ssDNA oligo with 5fC (Table 6)
B5 deaminase [3]; 5fC
  activity (% deamination): 2

## ssDNA oligo with 5hmC (Table 6)
B5 deaminase [3]; 5hmC
  activity (% deamination): 36

## T4 genomic DNA, native
B5 deaminase [2]; 5gmC (glucosylated 5hmC), not denatured
  activity (% deamination): 3

## T4gt genomic DNA, denatured
B5 deaminase [2]; all C replaced by 5hmC, NaOH and heat denatured
  activity (% deamination): 27

## lambda genomic DNA, denatured
B5 deaminase [2]; NaOH and heat denatured
  activity (% deamination): 6

## T4gt genomic DNA, native
B5 deaminase [2]; all C replaced by 5hmC, not denatured
  activity (% deamination): 9

## ssDNA oligo with 5caC (Table 6)
B5 deaminase [3]; 5caC
  activity (% deamination): 2

## XP12 genomic DNA, denatured
E10 deaminase [8]
  activity (% deamination): 40.9
H3 deaminase
  activity (% deamination): 11.3
B5 deaminase [9]
  activity (% deamination): 74.6
G12 deaminase
  activity (% deamination): 12.7
F7 deaminase [10]
  activity (% deamination): 22
B5 deaminase [2]; all C replaced by 5mC, NaOH and heat denatured
  activity (% deamination): 35

## XP12 genomic DNA, native
B5 deaminase [2]; all C replaced by 5mC, not denatured
  activity (% deamination): 4

## ssDNA oligo with 5mC (Table 6)
B5 deaminase [3]; 5mC
  activity (% deamination): 53

## ATACACCGATGCAGAACTCATGGGCTTACGC (ssDNA, 5mC at position 17) [FAM 5mC oligo 1]
251 deaminase
  activity: 66 % deamination
H2 deaminase
  activity: 7 % deamination
F12 deaminase
  activity: 10 % deamination
E12 deaminase
  activity: 5 % deamination
G10 deaminase
  activity: 4.5 % deamination
206 deaminase
  activity: 50 % deamination
252 deaminase
  activity: 12 % deamination
PRW314
  activity: 90 % deamination
PRW313
  activity: 90 % deamination
PRW311
  activity: 69 % deamination
PRW294
  activity: 73 % deamination

## ATACACCGATGCAGAACTCATGGGCTTACGC (ssDNA) [FAM C oligo 4]
G10 deaminase
  activity: 2.6 % deamination
PRW314
  activity: 13 % deamination
PRW313
  activity: 11 % deamination
